How the values were obtained:
X-ray diffraction = conditions: glycan changed form; control: HEK293T-expressed protein
[1] = achievable concentration for crystal screens; conditions: glycan lost; control: undigested HEK293S MGAT1−/− material
[2] = achievable concentration of CSF-1 complex; conditions: glycan changed form; control: wild-type (HEK293T) material
[3] = X-ray diffraction of CSF-1 complex crystals; conditions: glycan changed form; control: HEK293T-expressed receptor
initial expression tests = conditions: glycan lost; control: other CSF-1RD1–D3 constructs
[4] = target: the molecule itself; experiment: SEC; size-exclusion chromatography of IMAC-purified murine IL-12B from GD cells
[5] = target: the molecule itself; experiment: crystal structure; DSCAM_(Ig7–Ig9) from HEK293 GlycoDelete cells; space group C2, one molecule in the asymmetric unit, oligomer by crystallographic symmetry; 0.2 M calcium acetate, 10% PEG 8000, 0.1 M HEPES pH 7.5, 3% glycerol; 1.85 Å

Down syndrome cell-adhesion molecule (DSCAMIg7–Ig9): GlycoDelete expression
other: crystal diffraction quality, other: diffraction limit (X-ray diffraction): increases, 1.85 vs ∼8

colony-stimulating factor 1 receptor (CSF-1RD1–D3): EndoH digestion
other: solubility [1]: decreases

colony-stimulating factor 1 receptor (CSF-1RD1–D3): GlycoDelete expression
other: solubility [2]: no change

colony-stimulating factor 1 receptor (CSF-1RD1–D3): HEK293S MGAT1−/− expression
other: crystal diffraction quality, other: diffraction limit [3]: increases, 4.5 vs did not diffract

colony-stimulating factor 1 receptor (CSF-1RD1–D3): N73Q
expression_or_secretion (initial expression tests): abolishes

colony-stimulating factor 1 receptor (CSF-1RD1–D3): N153Q
expression_or_secretion (initial expression tests): no change

colony-stimulating factor 1 receptor (CSF-1RD1–D3): N240Q
expression_or_secretion (initial expression tests): no change

colony-stimulating factor 1 receptor (CSF-1RD1–D3): N275Q
expression_or_secretion (initial expression tests): no change

B1: murine IL-12B (natural protein, UniProt P43432 23-335, looked up)
chain: MWELEKDVYVVEVDWTPDAPGETVNLTCDTPEEDDITWTSDQRHGVIGSGKTLTITVKEFLDAGQYTCHKGGETLSHSHLLLHKKENGIWSTEILKNFKNKTFLKCEAPNYSGRFTCSWLVQRNMDLKFNIKSSSSSPDSRAVTCGMASLSAEKVTLDQRDYEKYSVSCQEDVTCPTAEETLPIELALEARQQNKYENYSTSFFIRDIIKPDPPKNLQMKPLKNSQVEVSWEYPDSWSTPHSYFSLKFFVRIQRKKEKMKETEEGCNQKGAFLVEKTSTEVQCKGGNVCVQAQDRYYNSSCSKWACVPCRVRS
modifications: immature N-linked glycan on Asn220 (modelled as Man4GlcNAc2)
notes: signal peptide in the construct; The dimeric SEC fractions (disulfide-linked homodimer through Cys197) were pooled, polished on Mono Q and crystallised; also called IL-12p40 (monomer); IL-12p80 (homodimer); source: HEK293 GlycoDelete cells, transfected, secreted; purified (IMAC, SEC, Mono Q anion exchange)
stoichiometry N [4]: 2

B2: human Down syndrome cell-adhesion molecule fragment DSCAM_(Ig7–Ig9) (domain or fragment)
chain: TVPPFIQPFEFPRFSIGQRVFIPCVVVSGDLPITITWQKDGRPIPGSLGVTIDNIDFTSSLRISNLSLMHNGNYTCIARNEAAAVEHQSQLIVRVPPKFVVQPRDQDGIYGKAVILNCSAEGYPVPTIVWKFSKGAGVPQFQPIALNGRIQVLSNGSLLIKHVVEEDSGYYLCKVSNDVGADVSKSMYLTVKIPAMITSYPNTTLATQGQKKEMSCTAHGEKPIIVRWEKEDRIINPEMARYLVSTKEVGEEVISTLQILPTVREDSGFFSCHAINSYGEDRGIIQLTVQEE
modifications: GlycoDelete N-glycan stubs at Asn666, Asn710, Asn748 and Asn795 (full Neu5AcGalGlcNAc at Asn795)
notes: one-residue cloning scar (Thr594) at the N-terminus; Down syndrome cell-adhesion molecule (DSCAM), human, UniProt O60469, residues 595–884 (Val595–Glu884), immunoglobulin domains Ig7, Ig8 and Ig9; one-residue cloning scar (Glu885) before the C-terminal 6×His tag; Expressed from pXLG behind a 34-residue signal peptide of pregnancy-specific glycoprotein 1 (UniProt P11464); The signal peptide is not …
binding result [5]: binds

Source: publication PMC7709199, “Homogeneously N-glycosylated proteins derived from the GlycoDelete HEK293 cell line enable diffraction-quality crystallogenesis” (Acta Crystallographica. Section D, Structural Biology, 2020)
